Test [1] deals with ATP synthase from mitochondria of Zea mays (Z. mays (endogenous in mitochondria)). The test is described as follows: single particle electron microscopy.
Test [2] addresses Complex III2 from potato (potato).

By stoichiometry N is commonly meant the number of molecules, sites or subunits per partner or assembly.

In turn, “ATP synthase from mitochondria of Zea mays (complex)” had a stoichiometry N in test [1] of 2.
Turning to Complex I from potato, in test [2], the stoichiometry N is 2.

The record behind these values is article PMC2780661.
